For data set [1], the target named is T1, rGyr_fl Y851F (full-length reverse gyrase) (Thermotoga maritima, UniProt O51934 1-1104, Y851F).
T1 sequence: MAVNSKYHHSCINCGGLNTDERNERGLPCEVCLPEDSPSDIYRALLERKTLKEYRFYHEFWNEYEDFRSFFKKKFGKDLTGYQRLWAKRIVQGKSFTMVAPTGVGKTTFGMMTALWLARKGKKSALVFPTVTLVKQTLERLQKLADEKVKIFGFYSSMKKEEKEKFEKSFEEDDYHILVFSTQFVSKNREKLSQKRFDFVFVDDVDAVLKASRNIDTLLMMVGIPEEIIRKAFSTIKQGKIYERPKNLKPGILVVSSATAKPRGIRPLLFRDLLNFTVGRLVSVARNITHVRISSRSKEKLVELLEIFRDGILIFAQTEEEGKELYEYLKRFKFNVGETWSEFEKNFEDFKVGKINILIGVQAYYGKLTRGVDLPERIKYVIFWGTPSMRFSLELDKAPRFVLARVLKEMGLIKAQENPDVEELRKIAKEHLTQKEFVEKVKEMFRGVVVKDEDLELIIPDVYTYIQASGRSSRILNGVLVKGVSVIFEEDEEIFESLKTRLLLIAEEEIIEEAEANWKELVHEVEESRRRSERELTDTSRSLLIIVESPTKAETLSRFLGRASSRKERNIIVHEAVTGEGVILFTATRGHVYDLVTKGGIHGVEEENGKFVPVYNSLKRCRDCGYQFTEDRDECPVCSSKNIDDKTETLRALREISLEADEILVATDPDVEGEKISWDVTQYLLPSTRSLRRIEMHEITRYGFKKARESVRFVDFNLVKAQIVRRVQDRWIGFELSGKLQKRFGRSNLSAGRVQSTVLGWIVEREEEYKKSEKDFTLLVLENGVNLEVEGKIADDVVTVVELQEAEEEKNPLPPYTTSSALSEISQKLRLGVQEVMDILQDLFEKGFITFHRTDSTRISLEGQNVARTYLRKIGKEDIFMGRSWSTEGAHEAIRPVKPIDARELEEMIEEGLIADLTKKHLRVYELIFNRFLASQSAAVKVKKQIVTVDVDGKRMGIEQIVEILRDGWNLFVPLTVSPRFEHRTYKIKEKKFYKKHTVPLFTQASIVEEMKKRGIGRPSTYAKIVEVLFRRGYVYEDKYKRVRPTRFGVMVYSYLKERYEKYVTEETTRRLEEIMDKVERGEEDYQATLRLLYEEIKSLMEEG
The experiment in a line: fluorescence anisotropy. Background: In fluorescence polarisation assays a small probe gives low polarisation when free and higher when bound to something large.

Data set [2] has as its target T1, rGyr_fl Y851F (full-length reverse …). The data set is described as follows: fluorescence anisotropy. The source holds these as a separate data set.

These results are taken from PMC2566858 (Nucleic Acids Research, 2008).

Like-named read-outs stand apart in the source and are kept apart here.

B1: 60-base ssDNA (ssDNA)
DNA: AAGCCAAGCTTCTAGAGTCAGCCCGTGATATTCATTACTTCTTATCCTAGGATCCCCGTT
Regarding B1, the Kd was 38 ± 2 nM in data set [1] and 46 ± 8 nM in data set [2].

The Kd is the equilibrium constant for the complex coming apart. High values mean a looser complex, low ones a tighter complex.
